Measured values reported in US20140274766A1, “METHODS OF USING F-SPONDIN AS A BIOMARKER FOR CARTILAGE DEGENERATIVE CONDITIONS AND BONE DISEASES” (priority 2009, published 2014).

System: human chondrocytes
Assay: PGE2 production by human chondrocytes (RIA), F-spondin supernatant and blocking antibodies
Type: cell-based
Details: supernatants from F-spondin transfected cells, 24 h, vs control vector supernatants
Description: FIG. 11: Blocking of F-spondin function by antibody: Human chondrocytes were grown in monolayer culture. The cells were adapted to serum free medium conditions for 24 h before treating with either F-spondin transfected supernatant (150 uL), LM609 (αvβ3) or R1 (F-spondin blocking antibody) for 24 h and the culture supernatant was collected for PGE2 estimation by RIA. The data is representative of one of the three experiments. F-spondin induced production of PGE2 was inhibited by R1 (TSR 3-6 blocking antibody).
F-spondin consists of reelin, spondin and six TSR domains; these domains may activate various cellular functions by binding to different receptors. Previously, Terai et al (2001) have shown that F-spondin inhibits angiogenesis in endothelial cells by binding to αvβ3 (Terai Y, Abe M, Miyamoto K, Koike M, Yamasaki M, Ueda M, et al. Vascular smooth muscle cell growth-promoting factor/F-spondin inhibits angiogenesis via the blockade of integrin alphavbeta3 on vascular endothelial cells. J Cell Physiol 2001; 188(3):394-402). […] Accordingly, human chondrocytes were incubated with the supernatant from F-spondin transfected cell culture for 24 h and the levels of PGE2 were measured under various conditions (FIG. 11). […]

B1: F-spondin: 110 kDa, secreted, heparin-binding extracellular matrix glycoprotein; used as recombinant protein (R&D systems) or transfected-cell supernatant (protein, UniProt Q9HCB6 29-807, looked up)
Spondin-1: FSDETLDKVPKSEGYCSRILRAQGTRREGYTEFSLRVEGDPDFYKPGTSYRVTLSAAPPSYFRGFTLIALRENREGDKEEDHAGTFQIIDEEETQFMSNCPVAVTESTPRRRTRIQVFWIAPPAGTGCVILKASIVQKRIIYFQDEGSLTKKLCEQDSTFDGVTDKPILDCCACGTAKYRLTFYGNWSEKTHPKDYPRRANHWSAIIGGSHSKNYVLWEYGGYASEGVKQVAELGSPVKMEEEIRQQSDEVLTVIKAKAQWPAWQPLNVRAAPSAEFSVDRTRHLMSFLTMMGPSPDWNVGLSAEDLCTKECGWVQKVVQDLIPWDAGTDSGVTYESPNKPTIPQEKIRPLTSLDHPQSPFYDPEGGSITQVARVVIERIARKGEQCNIVPDNVDDIVADLAPEEKDEDDTPETCIYSNWSPWSACSSSTCDKGKRMRQRMLKAQLDLSVPCPDTQDFQPCMGPGCSDEDGSTCTMSEWITWSPCSISCGMGMRSRERYVKQFPEDGSVCTLPTEETEKCTVNEECSPSSCLMTEWGEWDECSATCGMGMKKRHRMIKMNPADGSMCKAETSQAEKCMMPECHTIPCLLSPWSEWSDCSVTCGKGMRTRQRMLKSLAELGDCNEDLEQVEKCMLPECPIDCELTEWSQWSECNKSCGKGHVIRTRMIQMEPQFGGAPCPETVQRKKCRIRKCLRNPSIQKLRWREARESRRSEQLKEESEGEQFPGCRMRPWTAWSECTKLCGGGIQERYMTVKKRFKSSQFTSCKDKKEIRACNVHPC
With B1 the PGE2 production was “significantly increased”.
